Where no end group is shown, it is not given here.
B1: Phage-2647 (peptide)
peptide: LVKWCIPDWMCSLS
modifications: cysteine pairing not given here; also: displayed on phage as pIII fusion, fusion junction and sequence not given here
notes: Clonal phage of the Peptide-180 library, tested as crude phage supernatant; not shown: pIII filament protein of the bacteriophage
B2: Phage-2644 (peptide)
peptide: PERMCVPQWMCTVT
modifications: cysteine pairing not given here; also: displayed on phage pIII, linker not given here
notes: as for B1
B3: Phage-2642 (peptide)
peptide: DLKWCIPSWMCTST
modifications: cysteine pairing not given here; also: displayed on phage pIII, linker not given here
notes: as for B1
B4: Phage-2645 (peptide)
peptide: FPKWCTPEWMCSLT
modifications: cysteine pairing not given here; also: displayed on phage pIII, linker not given here
notes: as for B1
B5: Phage-2643 (peptide)
peptide: VEKLCKPAWMCNGQ
modifications: cysteine pairing not given here; also: displayed on phage pIII, linker not given here
notes: as for B1
B6: Phage-2646 (peptide)
peptide: QPKWCTPDWMCTGI
modifications: cysteine pairing not given here; also: displayed on phage as pIII fusion, fusion junction and sequence not given here
notes: as for B1
B7: Phage-2648 (peptide)
peptide: EYKWCTPIWMCQGN
modifications: cysteine pairing not given here; also: displayed on phage as pIII fusion, fusion junction and sequence not given here
notes: as for B1
B8: Phage-2649 (peptide)
peptide: TWKWCTPAWMCSVM
modifications: cysteine pairing not given here; also: displayed on phage as pIII fusion, fusion junction and sequence not given here
notes: as for B1
B9: Phage-2641 (peptide)
peptide: AEKLCIPDWMCDVY
modifications: cysteine pairing not given here; also: displayed on phage pIII, linker not given here
notes: as for B1
B10: Phage-2660 (peptide)
peptide: VEKWCRPSWMCQQV
B11: Phage-2655 (peptide)
peptide: FVNMCKPAWMCSLL
B12: Phage-2653 (peptide)
peptide: ETKWCIPVWMCEHK
B13: Phage-2658 (peptide)
peptide: MPKWCTPQWMCEMY
B14: Phage-2663 (peptide)
peptide: VVKWCTPAWMCSLN
B15: Phage-2659 (peptide)
peptide: GEHWCTPAWMCSVM
B16: Phage-2650 (peptide)
peptide: DVKWCIPPWMCPSF
B17: Phage-2665 (peptide)
peptide: EFKWCIPMWMCQAN
B18: Phage-2664 (peptide)
peptide: APHLCIPKWMCNPS
B19: Phage-2651 (peptide)
peptide: LQNWCVPAWMCELM
B20: Phage-2656 (peptide)
peptide: AIKWCIPAWMCAQA
modifications: cysteine pairing not given here; also: displayed on phage as pIII fusion
B21: Phage-2652 (peptide)
peptide: SNHLCTPPWMCYGF
B22: Phage-2657 (peptide)
peptide: LQKWCIPAWMCSST
B23: Phage-2654 (peptide)
peptide: HEKWCTPPWMCELI
B24: Phage-2662 (peptide)
peptide: DYKWCTPPWMCLVD
B25: Phage-2661 (peptide)
peptide: APKWCTPSWMCQQV
B26: Phage-2742 (peptide)
peptide: DIKRCTPAWMCSWM
B27: Phage-2751 (peptide)
peptide: EDIWCIPSWMCGVI
B28: Phage-2744 (peptide)
peptide: FDKWCTPPWMCKVF
B29: Phage-2753 (peptide)
peptide: ANHWCIPSWMCTEV
B30: Phage-2752 (peptide)
peptide: ETSWCRPTWMCEGM
B31: Phage-2749 (peptide)
peptide: GNLWCSPPWMCFGM
B32: Phage-2743 (peptide)
peptide: IMKWCTPTWMCEMG
B33: Phage-2746 (peptide)
peptide: VVKMCKPLWMCGIS
B34: Phage-2747 (peptide)
peptide: SEKWCTPAWMCGDM
B35: Phage-2748 (peptide)
peptide: DWKWCIPAWMCSQD
B36: Phage-2745 (peptide)
peptide: TNKLCIPTWMCSGF
B37: Phage-2741 (peptide)
peptide: MSKWCVPTWMCQWQ
B38: Phage-2740 (peptide)
peptide: GNSWCTPQWMCTGF
B39: Phage-2750 (peptide)
peptide: DVKWCKPRWMCNRD

molecular target: T1, PSMA Fab (006 PSMA Fab) (biotinylated (site not given)); assay: clonal phage ELISA; biotinylated PSMA Fab on neutravidin plate, blocking buffer alone; anti-M13 HRP detection;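 further: crude clonal phage supernatants added without washing to wells pretreated with blocking buffer with or without PSMA antigen, short incubation, then washed before detecting bound phage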
T1 construct: also called Anti-PSMA Fab; anti-PSMA Fab

| Binder | Phage binding ELISA signal, Anti-PSMA Fab |
| --- | --- |
| B1 | 0.952 |
| B2 | 0.956 |
| B3 | 0.957 |
| B4 | 0.955 |
| B5 | 0.956 |
| B6 | 0.954 |
| B7 | 0.95 |
| B8 | 0.947 |
| B9 | 0.957 |

molecular target: T1, PSMA Fab (006 PSMA Fab); assay: clonal phage ELISA; biotinylated PSMA Fab on neutravidin plate, wells pre-incubated with PSMA antigen as competitor; anti-M13 HRP detection;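 further: crude clonal phage supernatants added to antigen-treated wells without a wash, incubated briefly, then bound phage read out via horse radish–conjugated anti-M13 antibody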
Description: (§1) Clonal phage were harvested as crude supernatants and screened via standard ELISAs. […] Prior to the addition of clonal phage. wells were incubated with blocking buffer and PSMA antigen or blocking buffer alone. Without washing or aspirating, clonal phage supernatants were then added to the wells and incubated for a short time. Wells were then washed followed by detection of bound phage using a horse radish conjugated anti-M13 antibody.

| Binder | Phage binding ELISA signal, Anti-PSMA Fab with PSMA antigen |
| --- | --- |
| B1 | 0.0865 |
| B2 | 0.107 |
| B3 | 0.0977 |
| B4 | 0.0592 |
| B5 | 0.0808 |
| B6 | 0.105 |
| B7 | 0.0626 |
| B8 | 0.113 |
| B9 | 0.0771 |

molecular target: T2, PSMA Fab (biotinylated (site not stated)); assay: phage ELISA, biotinylated PSMA Fab on neutravidin plate, anti-M13-HRP detection, blocking buffer alone
T2 construct: Biotinylated PSMA Fab captured on neutravidin plates in the phage ELISA; also called Anti-PSMA Fab; 006 PSMA Fab

| Binder | Phage binding ELISA signal, Anti-PSMA Fab |
| --- | --- |
| B10 | 0.914 |
| B11 | 0.923 |
| B12 | 0.934 |
| B13 | 0.92 |
| B14 | 0.902 |
| B15 | 0.919 |
| B16 | 0.944 |
| B17 | 0.896 |
| B18 | 0.899 |
| B19 | 0.941 |
| B20 | 0.92 |
| B21 | 0.939 |
| B22 | 0.92 |
| B23 | 0.929 |
| B24 | 0.904 |
| B25 | 0.908 |

molecular target: T3, PSMA Fab (006 PSMA Fab); assay: clonal phage ELISA on captured PSMA Fab, wells pre-incubated with PSMA antigen as competitor, anti-M13 HRP detection;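 further: crude clonal phage supernatants added, with no intervening wash, to wells preincubated with PSMA antigen in blocking buffer, incubated briefly, then washed before detecting bound phage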
T3 construct: also called Anti-PSMA Fab; anti-PSMA Fab
Description: as §1

| Binder | Phage binding ELISA signal, Anti-PSMA Fab with PSMA antigen |
| --- | --- |
| B26 | 0.0807 |
| B27 | 0.0663 |
| B28 | 0.143 |
| B29 | 0.162 |
| B30 | 0.0587 |
| B31 | 0.0732 |
| B32 | 0.122 |
| B33 | 0.0564 |
| B34 | 0.0842 |
| B35 | 0.0645 |
| B36 | 0.0715 |
| B37 | 0.0979 |
| B38 | 0.0596 |
| B39 | 0.0701 |

molecular target: T3, PSMA Fab (006 PSMA Fab); assay: clonal phage ELISA on biotinylated PSMA Fab captured on neutravidin plates, anti-M13 HRP detection;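 further: crude clonal phage supernatants tested, before phage were added, wells were pretreated with PSMA antigen in blocking buffer or with blocking buffer only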
Description: as §1

| Binder | Phage binding ELISA signal, Anti-PSMA Fab |
| --- | --- |
| B26 | 0.709 |
| B27 | 0.694 |
| B28 | 0.708 |
| B29 | 0.692 |
| B30 | 0.693 |
| B31 | 0.696 |
| B32 | 0.708 |
| B33 | 0.701 |
| B34 | 0.7 |
| B35 | 0.697 |
| B36 | 0.703 |
| B37 | 0.711 |
| B38 | 0.712 |
| B39 | 0.695 |

molecular target: T2, PSMA Fab; assay: phage ELISA, biotinylated PSMA Fab on neutravidin plate, anti-M13-HRP detection, competitor PSMA antigen pre-incubated
Description: as §1

| Binder | Phage binding ELISA signal, Anti-PSMA Fab with PSMA antigen |
| --- | --- |
| B10 | 0.09 |
| B11 | 0.0949 |
| B12 | 0.122 |
| B13 | 0.0641 |
| B14 | 0.0846 |
| B15 | 0.68 |
| B16 | 0.0771 |
| B17 | 0.0753 |
| B18 | 0.105 |
| B19 | 0.068 |
| B20 | 0.0786 |
| B21 | 0.0665 |
| B22 | 0.0717 |
| B23 | 0.0717 |
| B24 | 0.083 |
| B25 | 0.121 |
